The source of these data is IntAct's records for PubMed 22835334.

B1: Huntingtin-interacting protein 1 (Homo sapiens), O00291 (parent)
chain: MDRMASSMKQVPNPLPKVLSRRGVGAGLEAAERESFERTQTVSINKAINTQEVAVKEKHARTCILGTHHEKGAQTFWSVVNRLPLSSNAVLCWKFCHVFHKLLRDGHPNVLKDSLRYRNELSDMSRMWGHLSEGYGQLCSIYLKLLRTKMEYHTKNPRFPGNLQMSDRQLDEAGESDVNNFFQLTVEMFDYLECELNLFQTVFNSLDMSRSVSVTAAGQCRLAPLIQVILDCSHLYDYTVKLLFKLHSCLPADTLQGHRDRFMEQFTKLKDLFYRSSNLQYFKRLIQIPQLPENPPNFLRASALSEHISPVVVIPAEASSPDSEPVLEKDDLMDMDASQQNLFDNKFDDIFGSSFSSDPFNFNSQNGVNKDEKDHLIERLYREISGLKAQLENMKTESQRVVLQLKGHVSELEADLAEQQHLRQQAADDCEFLRAELDELRRQREDTEKAQRSLSEIERKAQANEQRYSKLKEKYSELVQNHADLLRKNAEVTKQVSMARQAQVDLEREKKELEDSLERISDQGQRKTQEQLEVLESLKQELATSQRELQVLQGSLETSAQSEANWAAEFAELEKERDSLVSGAAHREEELSALRKELQDTQLKLASTEESMCQLAKDQRKMLLVGSRKAAEQVIQDALNQLEEPPLISCAGSADHLLSTVTSISSCIEQLEKSWSQYLACPEDISGLLHSITLLAHLTSDAIAHGATTCLRAPPEPADSLTEACKQYGRETLAYLASLEEEGSLENADSTAMRNCLSKIKAIGEELLPRGLDIKQEELGDLVDKEMAATSAAIETATARIEEMLSKSRAGDTGVKLEVNERILGCCTSLMQAIQVLIVASKDLQREIVESGRGTASPKEFYAKNSRWTEGLISASKAVGWGATVMVDAADLVVQGRGKFEELMVCSHEIAASTAQLVAASKVKADKDSPNLAQLQQASRGVNQATAGVVASTISGKSQIEETDNMDFSSMTLTQIKRQEMDSQVRVLELENELQKERQKLGELRKKHYELAGVAEGWEEGTEASPPTLQEVVTEKE

The variants in this experiment derive from B1. The conditions noted are these: with hd_human HTT.
As to T528L, the “effect of a mutation on the interaction” value is “increasing interaction”. As for K510L, the entry is “increasing interaction”.
